Key:
[1] = system: PPIs of the SKEMPI data set (by PDBID); experiment: SKEMPI experimental ΔΔG, single mutations to alanine; format: binding; conditions: for sk_class (class of the SKEMPI experimental ΔΔG): class by ΔΔG threshold 4.184 kJ/mol, ref SKEMPI; for sk_class: class of the SKEMPI experimental ΔΔG
[2] = system: PPIs of the SKEMPI data set (by PDBID); conditions: single mutation to alanine, ref SKEMPI, cited from earlier work; for sk_ddG_kJ (SKEMPI experimental ΔΔG, mutation to alanine): PPI given by PDBID, sheet sortedByGroup, r_group DERKH; for sk_ddG_kJ (SKEMPI experimental ΔΔG): complex given by PDBID, residue group SQNT

Molecule	sk_class (class of the SKEMPI experimental ΔΔG) [1]	sk_ddG_kJ (SKEMPI experimental ΔΔG, mutation to alanine) [2]	sk_class [1]	sk_ddG_kJ (SKEMPI experimental ΔΔG) [2]
1A4Y EA401A (protein, UniProt P13489 2-461, looked up, variant E401A) Ribonuclease inhibitor: SLDIQSLDIQCEELSDARWAELLPLLQQCQVVRLDDCGLTEARCKDISSALRVNPALAELNLRSNELGDVGVHCVLQGLQTPSCKIQKLSLQNCCLTGAGCGVLSSTLRTLPTLQELHLSDNLLGDAGLQLLCEGLLDPQCRLEKLQLEYCSLSAASCEPLASVLRAKPDFKELTVSNNDINEAGVRVLCQGLKDSPCQLEALKLESCGVTSDNCRDLCGIVASKASLRELALGSNKLGDVGMAELCPGLLHPSSRLRTLWIWECGITAKGCGDLCRVLRAKESLKELSLAGNELGDEGARLLCETLLEPGCQLESLWVKSCSFTAACCSHFSSVLAQNRFLLELQISNNRLEDAGVRELCQGLGQPGSVLRVLWLADCDVSDSSCSSLAATLLANHSLRALDLSNNCLGDAGILQLVESVRQPGCLLEQLVLYDIYWSEEMEDRLQALEKDKPSLRVIS	Neutral (neutral (little effect) 4.184 kJ/mol < ΔΔG > −4.184 kJ/mol)	3.60 kJ	–	–
1A4Y DA435A (protein, UniProt P13489 2-461, looked up, variant D435A) Ribonuclease inhibitor: SLDIQSLDIQCEELSDARWAELLPLLQQCQVVRLDDCGLTEARCKDISSALRVNPALAELNLRSNELGDVGVHCVLQGLQTPSCKIQKLSLQNCCLTGAGCGVLSSTLRTLPTLQELHLSDNLLGDAGLQLLCEGLLDPQCRLEKLQLEYCSLSAASCEPLASVLRAKPDFKELTVSNNDINEAGVRVLCQGLKDSPCQLEALKLESCGVTSDNCRDLCGIVASKASLRELALGSNKLGDVGMAELCPGLLHPSSRLRTLWIWECGITAKGCGDLCRVLRAKESLKELSLAGNELGDEGARLLCETLLEPGCQLESLWVKSCSFTAACCSHFSSVLAQNRFLLELQISNNRLEDAGVRELCQGLGQPGSVLRVLWLADCDVSDSSCSSLAATLLANHSLRELDLSNNCLGDAGILQLVESVRQPGCLLEQLVLYAIYWSEEMEDRLQALEKDKPSLRVIS	Positive (positive (a hot residue) ΔΔG ≥ 4.184 kJ/mol)	14.56 kJ	–	–
1AHW NC199A (protein, UniProt P13726 33-251, looked up, variant N199A, extracellular domain) extracellular domain: SGTTNTVAAYNLTWKSTNFKTILEWEPKPVNQVYTVQISTKSGDWKSKCFYTTDTECDLTDEIVKDVKQTYLARVFSYPAGNVESTGSAGEPLYENSPEFTPYLETNLGQPTIQSFEQVGTKVNVTVEDERTLVRRNNTFLSLRDVFGKDLIYTLYYWKSSSSGKKTAKTNTNEFLIDVDKGENYCFSVQAVIPSRTVARKSTDSPVECMGQEKGEFRE	–	–	Positive (positive (a hot residue) ΔΔG ≥ 4.184 kJ/mol)	4.52 kJ
1DAN NT18A (protein, UniProt P13726 33-251, looked up, variant N18A, extracellular domain) extracellular domain: SGTTNTVAAYNLTWKSTAFKTILEWEPKPVNQVYTVQISTKSGDWKSKCFYTTDTECDLTDEIVKDVKQTYLARVFSYPAGNVESTGSAGEPLYENSPEFTPYLETNLGQPTIQSFEQVGTKVNVTVEDERTLVRRNNTFLSLRDVFGKDLIYTLYYWKSSSSGKKTAKTNTNEFLIDVDKGENYCFSVQAVIPSRTVNRKSTDSPVECMGQEKGEFRE	–	–	Neutral (neutral (little effect) 4.184 kJ/mol < ΔΔG > −4.184 kJ/mol)	0.75 kJ
1DAN QU110A (protein, UniProt P13726 33-251, looked up, variant Q110A, extracellular domain) extracellular domain: SGTTNTVAAYNLTWKSTNFKTILEWEPKPVNQVYTVQISTKSGDWKSKCFYTTDTECDLTDEIVKDVKQTYLARVFSYPAGNVESTGSAGEPLYENSPEFTPYLETNLGAPTIQSFEQVGTKVNVTVEDERTLVRRNNTFLSLRDVFGKDLIYTLYYWKSSSSGKKTAKTNTNEFLIDVDKGENYCFSVQAVIPSRTVNRKSTDSPVECMGQEKGEFRE	–	–	Positive (positive (a hot residue) ΔΔG ≥ 4.184 kJ/mol)	5.44 kJ
1DAN TT52A (protein, UniProt P13726 33-251, looked up, variant T52A, extracellular domain) extracellular domain: SGTTNTVAAYNLTWKSTNFKTILEWEPKPVNQVYTVQISTKSGDWKSKCFYATDTECDLTDEIVKDVKQTYLARVFSYPAGNVESTGSAGEPLYENSPEFTPYLETNLGQPTIQSFEQVGTKVNVTVEDERTLVRRNNTFLSLRDVFGKDLIYTLYYWKSSSSGKKTAKTNTNEFLIDVDKGENYCFSVQAVIPSRTVNRKSTDSPVECMGQEKGEFRE	–	–	Neutral (neutral (little effect) 4.184 kJ/mol < ΔΔG > −4.184 kJ/mol)	1.67 kJ
1DAN TU132A (protein, UniProt P13726 33-251, looked up, variant T132A, extracellular domain) extracellular domain: SGTTNTVAAYNLTWKSTNFKTILEWEPKPVNQVYTVQISTKSGDWKSKCFYTTDTECDLTDEIVKDVKQTYLARVFSYPAGNVESTGSAGEPLYENSPEFTPYLETNLGQPTIQSFEQVGTKVNVTVEDERALVRRNNTFLSLRDVFGKDLIYTLYYWKSSSSGKKTAKTNTNEFLIDVDKGENYCFSVQAVIPSRTVNRKSTDSPVECMGQEKGEFRE	–	–	Neutral (neutral (little effect) 4.184 kJ/mol < ΔΔG > −4.184 kJ/mol)	0.00 kJ
1DAN ST16A (protein, UniProt P13726 33-251, looked up, variant S16A, extracellular domain) extracellular domain: SGTTNTVAAYNLTWKATNFKTILEWEPKPVNQVYTVQISTKSGDWKSKCFYTTDTECDLTDEIVKDVKQTYLARVFSYPAGNVESTGSAGEPLYENSPEFTPYLETNLGQPTIQSFEQVGTKVNVTVEDERTLVRRNNTFLSLRDVFGKDLIYTLYYWKSSSSGKKTAKTNTNEFLIDVDKGENYCFSVQAVIPSRTVNRKSTDSPVECMGQEKGEFRE	–	–	Neutral (neutral (little effect) 4.184 kJ/mol < ΔΔG > −4.184 kJ/mol)	-0.54 kJ
1DAN TT21A (protein, UniProt P13726 33-251, looked up, variant T21A, extracellular domain) extracellular domain: SGTTNTVAAYNLTWKSTNFKAILEWEPKPVNQVYTVQISTKSGDWKSKCFYTTDTECDLTDEIVKDVKQTYLARVFSYPAGNVESTGSAGEPLYENSPEFTPYLETNLGQPTIQSFEQVGTKVNVTVEDERTLVRRNNTFLSLRDVFGKDLIYTLYYWKSSSSGKKTAKTNTNEFLIDVDKGENYCFSVQAVIPSRTVNRKSTDSPVECMGQEKGEFRE	–	–	Neutral (neutral (little effect) 4.184 kJ/mol < ΔΔG > −4.184 kJ/mol)	-0.67 kJ
1DAN ST42A (protein, UniProt P13726 33-251, looked up, variant S42A, extracellular domain) extracellular domain: SGTTNTVAAYNLTWKSTNFKTILEWEPKPVNQVYTVQISTKAGDWKSKCFYTTDTECDLTDEIVKDVKQTYLARVFSYPAGNVESTGSAGEPLYENSPEFTPYLETNLGQPTIQSFEQVGTKVNVTVEDERTLVRRNNTFLSLRDVFGKDLIYTLYYWKSSSSGKKTAKTNTNEFLIDVDKGENYCFSVQAVIPSRTVNRKSTDSPVECMGQEKGEFRE	–	–	Neutral (neutral (little effect) 4.184 kJ/mol < ΔΔG > −4.184 kJ/mol)	-0.29 kJ
1DAN NU107A (protein, UniProt P13726 33-251, looked up, variant N107A, extracellular domain) extracellular domain: SGTTNTVAAYNLTWKSTNFKTILEWEPKPVNQVYTVQISTKSGDWKSKCFYTTDTECDLTDEIVKDVKQTYLARVFSYPAGNVESTGSAGEPLYENSPEFTPYLETALGQPTIQSFEQVGTKVNVTVEDERTLVRRNNTFLSLRDVFGKDLIYTLYYWKSSSSGKKTAKTNTNEFLIDVDKGENYCFSVQAVIPSRTVNRKSTDSPVECMGQEKGEFRE	–	–	Neutral (neutral (little effect) 4.184 kJ/mol < ΔΔG > −4.184 kJ/mol)	0.00 kJ
1DAN TT17A (protein, UniProt P13726 33-251, looked up, variant T17A, extracellular domain) extracellular domain: SGTTNTVAAYNLTWKSANFKTILEWEPKPVNQVYTVQISTKSGDWKSKCFYTTDTECDLTDEIVKDVKQTYLARVFSYPAGNVESTGSAGEPLYENSPEFTPYLETNLGQPTIQSFEQVGTKVNVTVEDERTLVRRNNTFLSLRDVFGKDLIYTLYYWKSSSSGKKTAKTNTNEFLIDVDKGENYCFSVQAVIPSRTVNRKSTDSPVECMGQEKGEFRE	–	–	Neutral (neutral (little effect) 4.184 kJ/mol < ΔΔG > −4.184 kJ/mol)	0.50 kJ
1AHW TC197A (protein, UniProt P13726 33-295, looked up, variant T197A) Tissue factor: SGTTNTVAAYNLTWKSTNFKTILEWEPKPVNQVYTVQISTKSGDWKSKCFYTTDTECDLTDEIVKDVKQTYLARVFSYPAGNVESTGSAGEPLYENSPEFTPYLETNLGQPTIQSFEQVGTKVNVTVEDERTLVRRNNTFLSLRDVFGKDLIYTLYYWKSSSSGKKTAKTNTNEFLIDVDKGENYCFSVQAVIPSRAVNRKSTDSPVECMGQEKGEFREIFYIIGAVVFVVIILVIILAISLHKCRKAGVGQSWKENSPLNVS	–	–	Positive (positive (a hot residue) ΔΔG ≥ 4.184 kJ/mol)	5.65 kJ
1DAN TT60A (protein, UniProt P13726 33-295, looked up, variant T60A) Tissue factor: SGTTNTVAAYNLTWKSTNFKTILEWEPKPVNQVYTVQISTKSGDWKSKCFYTTDTECDLADEIVKDVKQTYLARVFSYPAGNVESTGSAGEPLYENSPEFTPYLETNLGQPTIQSFEQVGTKVNVTVEDERTLVRRNNTFLSLRDVFGKDLIYTLYYWKSSSSGKKTAKTNTNEFLIDVDKGENYCFSVQAVIPSRTVNRKSTDSPVECMGQEKGEFREIFYIIGAVVFVVIILVIILAISLHKCRKAGVGQSWKENSPLNVS	–	–	Positive (positive (a hot residue) ΔΔG ≥ 4.184 kJ/mol)	9.67 kJ
1DAN ST47A (protein, UniProt P13726 33-295, looked up, variant S47A) Tissue factor: SGTTNTVAAYNLTWKSTNFKTILEWEPKPVNQVYTVQISTKSGDWKAKCFYTTDTECDLTDEIVKDVKQTYLARVFSYPAGNVESTGSAGEPLYENSPEFTPYLETNLGQPTIQSFEQVGTKVNVTVEDERTLVRRNNTFLSLRDVFGKDLIYTLYYWKSSSSGKKTAKTNTNEFLIDVDKGENYCFSVQAVIPSRTVNRKSTDSPVECMGQEKGEFREIFYIIGAVVFVVIILVIILAISLHKCRKAGVGQSWKENSPLNVS	–	–	Neutral (neutral (little effect) 4.184 kJ/mol < ΔΔG > −4.184 kJ/mol)	-0.54 kJ

Reference: paper PMC6804253, “Predicting and Experimentally Validating Hot-Spot Residues at Protein–Protein Interfaces” (ACS Chemical Biology, 2019)
